The results in this text go back to patent US20240156863A1 (MorphoSys, published 2024).

For this experiment, the target named is T1, Human CD19 (human, UniProt P15391 20-556).
T1 construct: Endogenous CD19 on the CD19+ cell lines Jeko (JeKo-1), Nalm-6 and Ly7; also called B-lymphocyte antigen CD19; B4
T1 sequence: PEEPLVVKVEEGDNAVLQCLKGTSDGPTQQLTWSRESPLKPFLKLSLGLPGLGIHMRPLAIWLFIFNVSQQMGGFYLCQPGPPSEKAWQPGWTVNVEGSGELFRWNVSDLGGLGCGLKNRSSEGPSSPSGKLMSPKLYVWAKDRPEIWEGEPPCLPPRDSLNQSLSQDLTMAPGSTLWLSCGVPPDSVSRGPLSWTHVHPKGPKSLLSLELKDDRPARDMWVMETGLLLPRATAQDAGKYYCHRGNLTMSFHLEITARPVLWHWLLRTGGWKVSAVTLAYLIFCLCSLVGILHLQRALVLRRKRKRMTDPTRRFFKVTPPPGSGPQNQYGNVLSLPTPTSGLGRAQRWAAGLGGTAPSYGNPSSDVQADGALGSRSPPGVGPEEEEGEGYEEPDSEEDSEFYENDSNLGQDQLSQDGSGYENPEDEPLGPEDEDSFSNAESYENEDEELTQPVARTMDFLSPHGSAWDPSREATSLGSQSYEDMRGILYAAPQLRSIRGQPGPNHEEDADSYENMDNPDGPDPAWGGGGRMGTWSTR
In words: Pre-incubation of CD19+ Nalm-6 or Jeko cells, then flow cytometry with FMC63 as competitor. The procedure:
FIG. 2: Clone FMC63 (CD19 binding domain in CART19) and tafasitamab compete for CD19 binding. After 4 hours of treatment of Jeko cells with 2 or 0.5 mg/mL of tafasitamab, flow cytometry using the FMC63 anti-CD19 antibody was performed.
It was studied, whether the observed CART19 activity may be influenced by tafasitamab in case of a direct CD19 binding competition between tafasitamab and the CAR. To first test for such binding competition, the CD19+ cell lines Nalm-6 or Jeko were incubated with 2 or 0.5 mg/mL tafasitamab, to saturate the receptors. […] To investigate for any potential impact of such binding competition on CART19 cell effector functions, tafasitamab was incubated with target cells (CD19+ cell lines Jeko, Ly7 or Nalm-6) at increasing concentrations and then CART19 cells were added at different effector: target ratios (0.1:1 to 10:1), without other effector cells to the cell culture.
For orientation: In flow cytometry, cells or beads pass a laser one at a time.

B1: tafasitamab (antibody, human IgG1, kappa, V domains shown)
VH: EVQLVESGGGLVKPGGSLKLSCAASGYTFTSYVMHWVRQAPGKGLEWIGYINPYNDGTKYNEKFQGRVTISSDKSISTAYMELSSLRSEDTAMYYCARGTYYYGTRVFDYWGQGTLVTVSS
VL: DIVMTQSPATLSLSPGERATLSCRSSKSLQNVNGNTYLYWFQQKPGQSPQLLIYRMSNLNSGVPDRFSGSGSGTEFTLTISSLEPEDFAVYYCMQHLEYPITFGAGTKLEIKR
notes: Fc-enhanced, humanized monoclonal anti-CD19 antibody; also called MOR00208; MOR208
For the molecule B1, the binding result is “binds”.
